These results are taken from the supplement of paper PMC9112550, “Optimization of the antimicrobial peptide Bac7 by deep mutational scanning” (BMC Biology, 2022).

This data set relates to Escherichia coli TOP10. The data set is described as follows: shrunken log2 fold change of peptide-encoding DNA abundance (4.5 h post-induction vs induction); higher = less antimicrobial activity (less host growth inhibition). Particulars: time post-induction: 4.5 h; library: site-saturation at positions 5, 18, 19, 20.
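Note: peptides expressed intracellularly from a pBAD plasmid library in pooled LB shake-flask culture, induced with 0.3% L-arabinose, DNA abundance read by NGS, three biological replicates, DESeq2 with apeglm shrinkage.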

Consider RRIRPRPPRLPRPRPRPALMPRP, for which the “shrunken log2 fold change” value is 0.31.
With RRIRIRPPRLPRPRPRPGLNPRP the figure was 1; with RRIRKRPPRLPRPRPRPFCGPRP, 0.345; with RRIRQRPPRLPRPRPRPMVQPRP, -0.00171.
With RRIRDRPPRLPRPRPRPMNEPRP the figure was 0.202; with RRIRWRPPRLPRPRPRPALLPRP, 0.584; with RRIRSRPPRLPRPRPRPYYFPRP, -0.664.
With RRIRPRPPRLPRPRPRPGWMPRP the figure was -0.0745; with RRIRSRPPRLPRPRPRPCSHPRP, -0.174; with RRIRWRPPRLPRPRPRPDPGPRP, -0.041.
For RRIRCRPPRLPRPRPRPFNDPRP, the “shrunken log2 fold change” value was determined as 0.0223.
Under RRIRSRPPRLPRPRPRPFFIPRP stands -0.547; under RRIRIRPPRLPRPRPRPDIGPRP, -0.251; under RRIRHRPPRLPRPRPRPFSMPRP, -0.0138.
Under RRIRWRPPRLPRPRPRPVFSPRP stands -0.0517.
Turning to RRIRNRPPRLPRPRPRPAINPRP, the “shrunken log2 fold change” value worked out at 0.0991.
Regarding RRIRMRPPRLPRPRPRPHIAPRP, the “shrunken log2 fold change” value stood at 0.13.
With RRIRPRPPRLPRPRPRPHFYPRP the figure was -0.217; with RRIRDRPPRLPRPRPRPEDVPRP, -0.0018; with RRIRKRPPRLPRPRPRPRVTPRP, 0.138.
On to RRIRNRPPRLPRPRPRPYTTPRP, for which the “shrunken log2 fold change” value is -0.83.
Consider RRIRGRPPRLPRPRPRPEHVPRP, for which the “shrunken log2 fold change” value is 0.0775.
With RRIRSRPPRLPRPRPRPYLYPRP the figure was -0.065; with RRIRGRPPRLPRPRPRPVQSPRP, 0.689.
In the case of RRIRNRPPRLPRPRPRPRIQPRP, the “shrunken log2 fold change” value came to 0.0619.
For RRIRSRPPRLPRPRPRPTYQPRP, the “shrunken log2 fold change” value was -0.0198.
With RRIRWRPPRLPRPRPRPRQDPRP the figure was 0.796; with RRIRFRPPRLPRPRPRPFRQPRP, -0.00049.
For the sequence RRIRVRPPRLPRPRPRPKCDPRP, the “shrunken log2 fold change” value worked out at 0.0741.
As for RRIRVRPPRLPRPRPRPFAVPRP, the “shrunken log2 fold change” value is -0.00738.
With RRIRPRPPRLPRPRPRPMYKPRP, the “shrunken log2 fold change” value was -0.323.
With RRIRPRPPRLPRPRPRPAYWPRP the figure was 0.212.
With RRIRERPPRLPRPRPRPVESPRP the figure was -0.0262.
With RRIRWRPPRLPRPRPRPGGFPRP the figure was 0.664; with RRIRLRPPRLPRPRPRPMRPPRP, 1.44; with RRIRDRPPRLPRPRPRPGKTPRP, -0.00088.
Consider RRIRKRPPRLPRPRPRPFMKPRP, for which the “shrunken log2 fold change” value was -0.157.
Under RRIRWRPPRLPRPRPRPMDAPRP stands 0.051.
With RRIRCRPPRLPRPRPRPADPPRP, the “shrunken log2 fold change” value is -0.195.
Under RRIRDRPPRLPRPRPRPLWSPRP stands -0.0446.
As for RRIRARPPRLPRPRPRPAMDPRP, the “shrunken log2 fold change” value was found to be 0.568.
With RRIRFRPPRLPRPRPRPVQIPRP the figure was -0.0152; with RRIRTRPPRLPRPRPRPTMHPRP, 0.0843.
As to RRIRMRPPRLPRPRPRPRDYPRP, the “shrunken log2 fold change” value is -0.164.
RRIRYRPPRLPRPRPRPIKIPRP: the “shrunken log2 fold change” value was -0.105.
Take RRIRKRPPRLPRPRPRPESVPRP: the “shrunken log2 fold change” value is 0.234.
Under RRIRMRPPRLPRPRPRPLYWPRP stands 0.0465; under RRIRSRPPRLPRPRPRPHVQPRP, 0.132; under RRIRARPPRLPRPRPRPSTEPRP, 0.396.
Regarding RRIRDRPPRLPRPRPRPPMYPRP, the “shrunken log2 fold change” value is -0.405.
For the sequence RRIRNRPPRLPRPRPRPPGFPRP, the “shrunken log2 fold change” value is 1.54.
For the sequence RRIRARPPRLPRPRPRPWAWPRP, the “shrunken log2 fold change” value was determined as 0.239.
Under RRIRHRPPRLPRPRPRPHAHPRP stands -0.072; under RRIRVRPPRLPRPRPRPQIPPRP, -0.298.
With RRIRARPPRLPRPRPRPNGVPRP the figure was -0.00122.
Under RRIRNRPPRLPRPRPRPDYSPRP stands -0.0548.
Consider RRIRHRPPRLPRPRPRPKHTPRP, for which the “shrunken log2 fold change” value was -0.104.
Under RRIRGRPPRLPRPRPRPMEDPRP stands -0.0262.
With RRIRTRPPRLPRPRPRPYNHPRP the figure was -0.138; with RRIRDRPPRLPRPRPRPSIEPRP, 0.089.
As for RRIRLRPPRLPRPRPRPDVRPRP, the “shrunken log2 fold change” value was 0.0235.
With RRIRQRPPRLPRPRPRPKSRPRP the figure was 0.0336.
Under RRIRHRPPRLPRPRPRPVKCPRP stands -0.00443.
With RRIRPRPPRLPRPRPRPSIIPRP the figure was -0.634; with RRIRTRPPRLPRPRPRPGSGPRP, 0.344.
RRIRYRPPRLPRPRPRPINPPRP: the “shrunken log2 fold change” value was -0.269.
For RRIRWRPPRLPRPRPRPNEEPRP, the “shrunken log2 fold change” value is -0.0212.
For the sequence RRIRVRPPRLPRPRPRPHQKPRP, the “shrunken log2 fold change” value is 0.375.
Under RRIRGRPPRLPRPRPRPYTPPRP stands -0.526.
RRIRKRPPRLPRPRPRPAWQPRP: the “shrunken log2 fold change” value stood at 0.714.
With RRIRPRPPRLPRPRPRPVHFPRP the figure was -0.342; with RRIRLRPPRLPRPRPRPDSSPRP, 0.00161.
With RRIRYRPPRLPRPRPRPFMGPRP the figure was -0.316; with RRIRARPPRLPRPRPRPIRDPRP, 0.114.
Turning to RRIRCRPPRLPRPRPRPWFRPRP, the “shrunken log2 fold change” value is -0.269.
In the case of RRIRGRPPRLPRPRPRPSETPRP, the “shrunken log2 fold change” value turned out to be 0.223.
For the sequence RRIRERPPRLPRPRPRPIEQPRP, the “shrunken log2 fold change” value was -0.00133.
With RRIRGRPPRLPRPRPRPARHPRP the figure was 0.664.
Under RRIRQRPPRLPRPRPRPWIRPRP stands -0.166; under RRIRIRPPRLPRPRPRPHLAPRP, 0.0435; under RRIRERPPRLPRPRPRPIMSPRP, -0.38.
Turning to RRIRDRPPRLPRPRPRPHYLPRP, the “shrunken log2 fold change” value is -0.159.
As for RRIRVRPPRLPRPRPRPLPPPRP, the “shrunken log2 fold change” value amounted to 0.418.
In the case of RRIRHRPPRLPRPRPRPPFKPRP, the “shrunken log2 fold change” value is 0.332.
With RRIRVRPPRLPRPRPRPTKAPRP the figure was -0.142.
With RRIRYRPPRLPRPRPRPYQGPRP, the “shrunken log2 fold change” value worked out at 0.00408.
With RRIRTRPPRLPRPRPRPTHMPRP, the “shrunken log2 fold change” value is -0.0271.
Under RRIRRRPPRLPRPRPRPRPRPRP stands 0.86.
As to RRIRKRPPRLPRPRPRPIFLPRP, the “shrunken log2 fold change” value was 0.0688.
With RRIRPRPPRLPRPRPRPIGEPRP the figure was -0.0647.
Under RRIRFRPPRLPRPRPRPKKEPRP stands 0.0316; under RRIRGRPPRLPRPRPRPELAPRP, 2.
Under RRIRIRPPRLPRPRPRPMYFPRP stands -0.609; under RRIRDRPPRLPRPRPRPHISPRP, -0.0535.
On to RRIRCRPPRLPRPRPRPYCHPRP, for which the “shrunken log2 fold change” value was -1.37.
Turning to RRIRMRPPRLPRPRPRPLEDPRP, the “shrunken log2 fold change” value came to 2.77.
Take RRIRERPPRLPRPRPRPFYYPRP: the “shrunken log2 fold change” value is -0.618.
Under RRIRSRPPRLPRPRPRPHGIPRP stands -0.273; under RRIRGRPPRLPRPRPRPQAPPRP, 0.662.
With RRIRGRPPRLPRPRPRPGWAPRP the figure was 0.992.
Under RRIRGRPPRLPRPRPRPCCVPRP stands 0.751.
As for RRIRIRPPRLPRPRPRPGNGPRP, the “shrunken log2 fold change” value is 0.0389.
With RRIRDRPPRLPRPRPRPIILPRP the figure was 0.0057; with RRIRQRPPRLPRPRPRPRFPPRP, 0.0593.
As to RRIRKRPPRLPRPRPRPMDIPRP, the “shrunken log2 fold change” value amounted to 0.0655.
In the case of RRIRKRPPRLPRPRPRPCTKPRP, the “shrunken log2 fold change” value was 0.0518.
With RRIRHRPPRLPRPRPRPLIHPRP the figure was -0.575; with RRIRIRPPRLPRPRPRPVTYPRP, -0.275.
With RRIRERPPRLPRPRPRPFNWPRP the figure was 0.00763; with RRIRYRPPRLPRPRPRPSCIPRP, -0.118; with RRIRWRPPRLPRPRPRPNEFPRP, -0.161.
Consider RRIRDRPPRLPRPRPRPIYDPRP, for which the “shrunken log2 fold change” value is -0.0423.
With RRIRPRPPRLPRPRPRPATSPRP the figure was 0.358; with RRIRMRPPRLPRPRPRPTAWPRP, 1.4; with RRIRWRPPRLPRPRPRPQYGPRP, -0.442.
Regarding RRIRPRPPRLPRPRPRPVQGPRP, the “shrunken log2 fold change” value was -0.0469.
Under RRIRVRPPRLPRPRPRPSTCPRP stands -0.325.
Under RRIRQRPPRLPRPRPRPRNYPRP stands 0.034.
With RRIRQRPPRLPRPRPRPSQFPRP the figure was 0.00374; with RRIRCRPPRLPRPRPRPWSSPRP, 0.615.
In the case of RRIRLRPPRLPRPRPRPTAKPRP, the “shrunken log2 fold change” value was 0.134.
With RRIRNRPPRLPRPRPRPILVPRP, the “shrunken log2 fold change” value was -0.0115.
For the sequence RRIRCRPPRLPRPRPRPGFVPRP, the “shrunken log2 fold change” value was 0.528.
Under RRIRHRPPRLPRPRPRPGCLPRP stands -0.278; under RRIRSRPPRLPRPRPRPGLGPRP, 0.485.
